This assay addresses prefusion-stabilized MERS-CoV spike protein, MERS S-2P (MERS-CoV, England1 (isolate United …, UniProt K9N5Q8, stabilised)). The assay is described as follows: negative-stain EM.

B1: Anti-MERS-CoV S antibody CDC2-A2, Fab (Fab, V domains shown)
VH: QVQLVESGGGLVKPGGSLRLSCAASGFTFSDYYMSWIRQAPGKGLEWVSYISSSGSTIYYADSVKGRFTISRDNAKNSLYLQMNSLRAEDTAVYYCARVGLGSGWYDWFDPWGQGTLVTVSS
VL: QSALTQPPSVSGAPGQRVTISCTGSSSNIGASYDVHWYQHLPGTAPKLLIYGNTNRPSGVPDRFSGSKSGTSASLAITGLQAEDEADYYCQSYDSSLSGVVFSGGTKLTVL
B1: the binding result is “binds”.

Source of the values: article PMC11783452 (iScience, 2024).
